Ends that are not written are not given here. Peptide text beside a SMILES is read from it.

One data set in a line: peptide solubility. The class given is physicochemical. To be noted: effect of C-terminal tail.
The target in the next data set is HPVE6 (Human papillomavirus type 16, UniProt P03126). To be noted: two-hybrid. The text has this: (§1) To identify IN-binding peptides, yeast producing HIV integrase was mated with yeast harboring a random peptide library (15 amino acids in length; 27 million diverse) fused to the VP16 activation domain. […] The peptide was cloned as a C-terminal fusion with VP16-Zsgreen and tested for interaction with the GALDB or GALDB-IN fusion in AH109 Mat a, trp1-901, leu2-3, 112, ura3-52, his3-200, gal4 Δ, gal 80Δ, LYS2::GAL1UAS-GAL1TATA-HIS3, GAL2UAS-GAL2TATA-ADE2, URA3:MEL1UAS-MEL1TATA-lacZ. Growth on -ade plates indicated activation of a selectable reporter.
Chain of HPVE6 (P03126 whole entry, the tested form may be a part): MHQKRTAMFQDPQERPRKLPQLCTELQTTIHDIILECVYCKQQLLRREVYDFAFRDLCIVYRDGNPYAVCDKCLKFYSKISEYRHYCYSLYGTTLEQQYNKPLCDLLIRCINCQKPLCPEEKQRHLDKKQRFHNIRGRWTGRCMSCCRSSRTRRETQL

A further data set addresses HPVE7 (Human papillomavirus type 16, UniProt P03129). To be noted: two-hybrid.
Text: as §1

The target of data set [1] is T1, HIV IN (Human immunodeficiency virus type 1 group M subtype B, UniProt P12497). The class given is biochemical. Conditions: summary statement.
Data set [2] has as its target T1, HIV IN. Briefly: yeast two-hybrid screen, growth on -ade plates. Details: HIV IN was amplified from the pNL4-3 based provirus (R9) as template and cloned into two expression vectors; expressed in transfected cells; host or cells: Saccharomyces cerevisiae AH109. Conditions: peptide fused to VP16 activation domain, GALDB-IN bait, FIG. 1. The class given is cell-based. The text has this: A yeast-based screening platform for identifying inhibitors of IN was constructed. In this platform, HIV IN was amplified from the pNL4-3 based provirus (R9) as template and cloned into two expression vectors resulting in a fusion of IN C-terminus to the GAL4 DNA binding domain (GALDB) and the GAL4 activation domain (GALAD) respectively. By western blot analysis, GALAD-IN was detected (not shown); however, GALDB-IN was barely detectable.
Binders were confirmed by plasmid linkage analysis (FIG. 1).

Chain of HPVE7 (P03129 whole entry): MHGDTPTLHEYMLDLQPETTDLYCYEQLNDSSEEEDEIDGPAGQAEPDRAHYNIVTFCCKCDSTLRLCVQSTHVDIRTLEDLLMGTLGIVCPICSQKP

With `CC[C@H](C)[C@H](NC(=O)[C@H](CC(C)C)NC(=O)[C@@H](NC(=O)[C@@H](NC(=O)[C@H](CCC(=O)O)NC(=O)[C@H](Cc1ccc(O)cc1)NC(=O)[C@@H](N)CC(C)C)[C@@H](C)O)[C@@H](C)CC)C(=O)N[C@@H](CC(C)C)C(=O)N[C@@H](CC(C)C)C(=O)N[C@@H](Cc1ccccc1)C(=O)N[C@@H](CC(C)C)C(=O)N[C@@H](CC(=O)O)C(=O)N[C@H](C(=O)N[C@@H](CC(=O)O)C(=O)N[C@H](C(=O)NCC(=O)N[C@@H](CCCCN)C(=O)N[C@@H](CCCCN)C(=O)N[C@@H](CCCNC(=N)N)C(=O)O)[C@@H](C)O)C(C)C` [B05751] (H-LYETILILLFLDVDTGKKR-OH; N-terminus and C-terminus assumed), the peptide solubility result in the data set “peptide solubility” is reported as “increased peptide solubility”.

Regarding `CC[C@H](C)[C@H](NC(=O)[C@H](CC(C)C)NC(=O)[C@@H](NC(=O)[C@@H](NC(=O)[C@H](CCC(=O)O)NC(=O)[C@H](Cc1ccc(O)cc1)NC(=O)[C@@H](N)CC(C)C)[C@@H](C)O)[C@@H](C)CC)C(=O)N[C@@H](CC(C)C)C(=O)N[C@@H](CC(C)C)C(=O)N[C@@H](Cc1ccccc1)C(=O)N[C@@H](CC(C)C)C(=O)N[C@@H](CC(=O)O)C(=O)N[C@H](C(=O)N[C@@H](CC(=O)O)C(=O)N[C@H](C(=O)NCC(=O)N[C@@H](CC(=O)O)C(=O)N[C@@H](CCC(=O)O)C(=O)N[C@@H](CC(=O)O)C(=O)O)[C@@H](C)O)C(C)C` [B05759] (H-LYETILILLFLDVDTGDED-OH; N-terminus and C-terminus assumed), the peptide solubility result in “peptide solubility” was “increased peptide solubility”.

Take LYETILILLFLDVDTG [SEQ ID NO:1]: the “interaction with false bait HPVE6” value in the data set with HPVE6 is given as “not false baits”. The “interaction with false bait HPVE7” value in the data set with HPVE7 is reported as “not false baits”. In addition, in the data set with HIV IN [1], the “inhibition of integration of viral DNA into target DNA” value is “inhibit the integration of viral DNA into the target DNA”. For the same compound, in the data set with HIV IN [2], the “interaction with HIV IN by two-hybrid” value was “interacted with the viral target”.

Source of the values: patent US8680046B2, “Inhibitors of viral integrase and methods of use” (Integratech Proteomics, LLC, priority 2009, dated 2014).
